Molecular target: FITC-conjugated Mouse transferrin (UniProt Q921I1)
Test: flow cytometry on cells
Details: read off a plot

Sequence of UniProt Q921I1 (Q921I1 whole entry, looked up): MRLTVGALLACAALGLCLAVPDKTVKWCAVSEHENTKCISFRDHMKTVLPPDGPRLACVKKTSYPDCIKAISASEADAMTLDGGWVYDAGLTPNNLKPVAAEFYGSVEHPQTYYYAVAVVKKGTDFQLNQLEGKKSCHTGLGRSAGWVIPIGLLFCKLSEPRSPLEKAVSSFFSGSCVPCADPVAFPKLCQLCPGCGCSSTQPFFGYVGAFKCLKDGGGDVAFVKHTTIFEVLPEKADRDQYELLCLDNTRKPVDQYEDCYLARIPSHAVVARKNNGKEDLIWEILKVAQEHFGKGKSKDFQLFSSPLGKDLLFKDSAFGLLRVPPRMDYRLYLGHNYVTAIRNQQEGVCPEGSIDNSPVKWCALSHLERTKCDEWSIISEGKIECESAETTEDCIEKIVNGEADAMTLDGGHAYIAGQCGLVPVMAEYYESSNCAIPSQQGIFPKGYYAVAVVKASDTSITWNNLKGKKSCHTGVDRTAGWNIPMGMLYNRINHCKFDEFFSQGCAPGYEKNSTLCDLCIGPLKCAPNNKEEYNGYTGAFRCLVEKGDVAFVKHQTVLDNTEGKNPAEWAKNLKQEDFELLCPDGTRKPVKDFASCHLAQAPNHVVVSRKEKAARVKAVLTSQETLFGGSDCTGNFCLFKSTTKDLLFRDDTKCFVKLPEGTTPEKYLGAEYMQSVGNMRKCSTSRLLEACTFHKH

Substance	response (parent: est. 1100) [m.f.i.]	response (MDCK cells stably expressing TfR1-FLAG, incubated with media containing FITC-labeled iron-loaded mouse transferrin, three replicates, parent: est. 580) [m.f.i.]
house mouse (Mus musculus) TfR1, wild type, C-terminal FLAG (from UniProt Q62351) A296S; R569I; A575L	910	
zygodont (Zygodontomys brevicauda) TfR1, wild type, C-terminal FLAG S296A; N569R; S575A		590

From publication PMC3665890
